Holding throughout (assay): ELISA
On the technique in general: In an ELISA, binding on a coated surface is turned into a signal by an enzyme label.

Test [1] deals with ZIKV NS1 (Zika virus (ZIKV)).
The target of test [2] is ZIKV NS1 (Zika virus (ZIKV)). This is another data set of the same source.
Test [3] concerns the target TBEV NS1.
Test [4] deals with YFV NS1.
Test [5] addresses WNV NS1.
Test [6] deals with JEV NS1.

EC50 data for 3 molecules are collected here from US20190256582A1 (published 2019).

Read-outs that look alike come from different tables or passages of the source.

For orientation: EC50 means the concentration at which the effect is half-maximal. Higher therefore signals a less potent agent.

B1: ZKA35 (antibody, V domains shown)
VH: QVQLQESGPGLVKPSQTLSLTCTVSGGSISTGGYYWSWIRQHPGKGLEWIGYIYYSGNTYYNPSLKSRVTISVDTSKKQFSLKLSSVTAADTAVYYCAKGGGRERPFDYWGQGTLVTVSS
VL: QSVLTQPPSASGTPGQRVTISCSGSSSNIGRNYVDWYQQLPGTAPKLLIYRNNQRPSGVPERFSGSKSGTSASLAISGLRSEDEADYYCVAWDDSRSGFVVFGGGTKVTVL
As for B1, the figures for the EC50 in test [1] and in test [2] were 1.74 ng/mL and 2 ng/mL, respectively.

B2: ZKA15 (antibody, V domains shown)
VH: QVQLQESGPGLVKPSETLSLTCTVSGGFINSYYWSWIRQPAGKGLEWIGRIYKSGSTNYNPSLKSRVTMSLDTSKYQFSLKLRSVTAADTAVYYCARDPYGDYVKAFDIWGQGTMVTVSS
VL: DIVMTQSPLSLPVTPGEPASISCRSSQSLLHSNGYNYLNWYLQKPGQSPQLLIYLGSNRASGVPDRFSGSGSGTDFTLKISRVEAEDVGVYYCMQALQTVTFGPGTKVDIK
As for B2, the EC50 in test [1] stood at 2.76 ng/mL; in test [2], 3 ng/mL; in test [3], 4610 ng/mL; in test [4] it was 2780 ng/mL; in test [5] it was 3220 ng/mL; in test [6], 5500 ng/mL.

B3: ZKA25 (antibody, V domains shown)
VH: EVQLVESGGGLVRPGGSLRLSCAASGFTFRSHWMSWVRQAPGKGLEWVANIKEDGYEKYYVDSVKGRFTISRDNAKNSLYLQMKSLRAEDTAVYYCARDLRVYSGRGFDPWGQGTLVTVSS
VL: not shown
As to B3, the values for the concentration for a half-maximal effect (EC50) in test [1] and in test [2] were 2.44 ng/mL and 2 ng/mL, respectively.
